Results as given in paper PMC3057972, “BAG3 Directly Interacts with Mutated alphaB-Crystallin to Suppress Its Aggregation and Toxicity” (PLoS ONE, 2011).
Numbering of substitutions follows the chain as printed. Numbers in names are those of the source.

B1: peptide corresponding to aa 200–213 of BAG3 (peptide, UniProt O95817 200-213, looked up)
peptide: QLPRGYISIPVIHE
notes: BAG3, human, amino acids 200–213; source: peptide, 'generated'
B2: peptide corresponding to aa 87–101 of BAG3 (peptide, UniProt O95817 87-101, looked up)
peptide: PQLRPGYIPIPVLHE
notes: BAG3, human, amino acids 87–101; source: peptide, 'generated'
B3: purified αB-crystallin wild type (from E. coli) (natural protein, human, UniProt P02511 1-175, looked up)
chain: MDIAIHHPWIRRPFFPFHSPSRLFDQFFGEHLLESDLFPTSTSLSPFYLRPPSFLRAPSWFDTGLSEMRLEKDRFSVNLDVKHFSPEELKVKVLGDVIEVHGKHEERQDEHGFISREFHRKYRIPADVDPLTITSSLSSDGVLTVNGPRKQVSGPERTIPITREEKPAVTAAPKK
notes: αB-crystallin, human, wild type; probably made as a GST fusion from pGEX-6P-1 with the GST removed (it is pulled down by GST-BAG3 on GSH beads); also called WT; source: E. coli, purified
B4: GST-αB-crystallin R120G (natural protein, human, UniProt P02511 1-175, looked up)
chain: B3 chain with R120G
notes: αB-crystallin, human, mutant R120G found in myofibrillar myopathy patients, cDNA subcloned into pGEX-6P-1; also called GST R120GαB-crystallin; GST-fused αB-crystallin mutant (R120G); source: E. coli BL21, purified (glutathione-Sepharose beads)
B5: GST-αB-crystallin wild type (natural protein, human, UniProt P02511 1-175, looked up)
chain: B3 chain
notes: αB-crystallin, human, wild type, cDNA subcloned into pGEX-6P-1; also called GST-fused αB-crystallin wild type (WT); GST fusion αB-crystallin; source: E. coli BL21, purified (glutathione-Sepharose beads)
B6: purified αB-crystallin R120G (from E. coli) (natural protein, human, UniProt P02511 1-175, looked up)
chain: B3 chain with R120G
notes: αB-crystallin, human, mutant R120G found in myofibrillar myopathy patients; probably made as a GST fusion from pGEX-6P-1 with the GST removed; also called R120G αB-crystallin; mutant (R120G); source: E. coli, purified

Assays:
Settings in all cases: both partners purified
[1] = target: B3; test: pull-down; competition: purified GST-BAG3 incubated with purified αB-crystallin in the presence or absence of peptides aa 87–101 or 200–213 of BAG3; precipitated with GSH beads; immunoblot with anti-αB-crystallin antibody
[2] = target: T1, GST-BAG3 (human, UniProt O95817 1-575); test: as above
T1 construct: BAG3, human, cDNA subcloned into pGEX-6P-1; also called GST-fused BAG3; GST protein fused to BAG3; source: E. coli BL21, purified (glutathione-Sepharose beads)
T1 sequence (O95817 whole entry, the tested form may be a part): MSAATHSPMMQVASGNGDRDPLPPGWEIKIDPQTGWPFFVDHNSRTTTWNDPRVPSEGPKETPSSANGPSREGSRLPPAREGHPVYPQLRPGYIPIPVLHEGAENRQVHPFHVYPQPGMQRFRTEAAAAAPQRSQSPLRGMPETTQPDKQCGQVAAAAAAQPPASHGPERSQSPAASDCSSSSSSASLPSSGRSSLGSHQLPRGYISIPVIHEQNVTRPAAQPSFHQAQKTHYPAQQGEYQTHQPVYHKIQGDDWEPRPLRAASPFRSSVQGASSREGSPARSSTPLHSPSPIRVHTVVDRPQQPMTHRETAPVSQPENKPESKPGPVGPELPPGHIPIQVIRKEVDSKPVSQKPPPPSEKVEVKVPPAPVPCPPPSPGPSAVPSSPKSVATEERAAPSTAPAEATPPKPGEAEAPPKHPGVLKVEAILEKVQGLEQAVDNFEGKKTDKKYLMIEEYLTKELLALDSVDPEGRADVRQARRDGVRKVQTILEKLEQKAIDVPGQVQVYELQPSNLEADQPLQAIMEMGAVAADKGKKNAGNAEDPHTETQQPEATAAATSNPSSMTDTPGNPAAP

[3] = target: T2, purified BAG3 (from E. coli) (human, UniProt O95817 1-575); test: pull-down; purified GST-fused αB-crystallin (WT or R120G) mixed with purified BAG3, pulled down with glutathione sepharose beads; immunoblot with anti-BAG3 antibody
T2 construct: BAG3, human; probably made as GST-BAG3 from pGEX-6P-1 with the GST removed (it is pulled down by GST-αB-crystallin on glutathione beads); source: E. coli BL21, purified
T2 sequence (O95817 whole entry, the tested form may be a part): as above

[4] = target: T1, GST-BAG3; test: pull-down; purified GST-BAG3 incubated with purified αB-crystallin in immunoprecipitation buffer, precipitated with glutathione-Sepharose beads; immunoblot with anti-αB-crystallin antibody

Row | binding result [1] | binding result [3] | Binder | other results
1 | binds | – | B1 | –
2 | binds | – | B2 | –
3 | – | – | B3 | binding result [2]: binds
4 | – | binds | B4 | –
5 | – | binds | B5 | –
6 | – | – | B6 | binding result [4]: binds
